± gives the uncertainty stated by the source.
B1: Homeobox protein cut-like 1, residues 548 to 629; numbered along this chain, P39880 (parent)
chain: GEEMDTAEIARQVKEQLIKHNIGQRIFGHYVLGLSQGSVSEILARPKPWNKLTVRGKEPFHKMKQFLSDEQNILALRSIQGR

Variants of: B1
Experiment: abundance fitness (aPCA) (normalised: wild type 0, dead -1); higher = more abundant; growth selection in yeast, the domain comes from the species named
Details: Homo sapiens

Variant	abundance fitness
GEEMDTAEIARQVKEQLIKHNIGQRIFGHYVLGLSQGSVSEILARPKPWNKLTVEGKEPFHKMKQFLSDEQNILALRSIQGR [R55E]	0.135 ± 0.028
GEEMDTAEIARQVKEQLIKHNIGQRIFGHYVLGLSQGSVSEILARPKPWNKLTVKGKEPFHKMKQFLSDEQNILALRSIQGR [R55K]	0.066 ± 0.031
GEEMDTAEIARQVKEQLIKHNIGQRIFGHYVLGLSQGSVSEILARPKPWNKLTVCGKEPFHKMKQFLSDEQNILALRSIQGR [R55C]	-0.051 ± 0.055
GEEMDTAEIARQVKEQLIKHNIGQRIFGHYVLGLSQGSVSEILARPKPWNKLTVDGKEPFHKMKQFLSDEQNILALRSIQGR [R55D]	0.027 ± 0.042
GEEMDTAEIARQVKEQLIKHNIGQRIFGHYVLGLSQGSVSEILARPKPWNKLTVMGKEPFHKMKQFLSDEQNILALRSIQGR [R55M]	-0.028 ± 0.038
GEEMDTAEIARQVKEQLIKHNIGQRIFGHYVLGLSQGSVSEILARPKPWNKLTVAGKEPFHKMKQFLSDEQNILALRSIQGR [R55A]	0.075 ± 0.026
GEEMDTAEIARQVKEQLIKHNIGQRIFGHYVLGLSQGSVSEILARPKPWNKLTVGGKEPFHKMKQFLSDEQNILALRSIQGR [R55G]	-0.011 ± 0.023
GEEMDTAEIARQVKEQLIKHNIGQRIFGHYVLGLSQGSVSEILARPKPWNKLTVFGKEPFHKMKQFLSDEQNILALRSIQGR [R55F]	-0.041 ± 0.094
GEEMDTAEIARQVKEQLIKHNIGQRIFGHYVLGLSQGSVSEILARPKPWNKLTVIGKEPFHKMKQFLSDEQNILALRSIQGR [R55I]	-0.148 ± 0.063
GEEMDTAEIARQVKEQLIKHNIGQRIFGHYVLGLSQGSVSEILARPKPWNKLTVHGKEPFHKMKQFLSDEQNILALRSIQGR [R55H]	0.077 ± 0.058
GEEMDTAEIARQVKEQLIKHNIGQRIFGHYVLGLSQGSVSEILARPKPWNKLTVLGKEPFHKMKQFLSDEQNILALRSIQGR [R55L]	-0.04 ± 0.031
GEEMDTAEIARQVKEQLIKHNIGQRIFGHYVLGLSQGSVSEILARPKPWNKLNVRGKEPFHKMKQFLSDEQNILALRSIQGR [T53N]	-0.077 ± 0.047
GEEMDTAEIARQVKEQLIKHNIGQRIFGHYVLGLSQGSVSEILARPKPWNKLSVRGKEPFHKMKQFLSDEQNILALRSIQGR [T53S]	0.049 ± 0.033
GEEMDTAEIARQVKEQLIKHNIGQRIFGHYVLGLSQGSVSEILARPKPWNKLEVRGKEPFHKMKQFLSDEQNILALRSIQGR [T53E]	-0.251 ± 0.059
GEEMDTAEIARQVKEQLIKHNIGQRIFGHYVLGLSQGSVSEILARPKPWNKLKVRGKEPFHKMKQFLSDEQNILALRSIQGR [T53K]	-0.686 ± 0.096
GEEMDTAEIARQVKEQLIKHNIGQRIFGHYVLGLSQGSVSEILARPKPWNKLPVRGKEPFHKMKQFLSDEQNILALRSIQGR [T53P]	-0.254 ± 0.046
GEEMDTAEIARQVKEQLIKHNIGQRIFGHYVLGLSQGSVSEILARPKPWNKLWVRGKEPFHKMKQFLSDEQNILALRSIQGR [T53W]	-0.566 ± 0.066
GEEMDTAEIARQVKEQLIKHNIGQRIFGHYVLGLSQGSVSEILARPKPWNKLQVRGKEPFHKMKQFLSDEQNILALRSIQGR [T53Q]	-0.369 ± 0.064
GEEMDTAEIARQVKEQLIKHNIGQRIFGHYVLGLSQGSVSEILARPKPWNKLYVRGKEPFHKMKQFLSDEQNILALRSIQGR [T53Y]	-0.821 ± 0.13
GEEMDTAEIARQVKEQLIKHNIGQRIFGHYVLGLSQGSVSEILARPKPWNKLMVRGKEPFHKMKQFLSDEQNILALRSIQGR [T53M]	-0.45 ± 0.059
GEEMDTAEIARQVKEQLIKHNIGQRIFGHYVLGLSQGSVSEILARPKPWNKLFVRGKEPFHKMKQFLSDEQNILALRSIQGR [T53F]	-0.55 ± 0.069
GEEMDTAEIARQVKEQLIKHNIGQRIFGHYVLGLSQGSVSEILARPKPWNKLIVRGKEPFHKMKQFLSDEQNILALRSIQGR [T53I]	-0.521 ± 0.069
GEEMDTAEIARQVKEQLIKHNIGQRIFGHYVLGLSQGSVSEILARPKPWNKLVVRGKEPFHKMKQFLSDEQNILALRSIQGR [T53V]	-0.671 ± 0.059

Variant	abundance fitness
GEEMDTAEIARQVKEQLIKHNIGQRIFGHYVLGLSQGSVSEILARPKPWNKLGVRGKEPFHKMKQFLSDEQNILALRSIQGR [T53G]	-0.032 ± 0.046
GEEMDTAEIARQVKEQLIKHNIGQRIFGHYVLGLSQGSVSEILARPKPWNKLRVRGKEPFHKMKQFLSDEQNILALRSIQGR [T53R]	-0.767 ± 0.064
GEEMDTAEIARQVKEQLIKHNIGQRIFGHYVLGLSQGSVSEILARPKPWNKLDVRGKEPFHKMKQFLSDEQNILALRSIQGR [T53D]	0.116 ± 0.054
GEEMDTAEIARQVKEQLIKHNIGQRIFGHYVLGLSQGSVSEILARPKPWNKLHVRGKEPFHKMKQFLSDEQNILALRSIQGR [T53H]	-0.432 ± 0.062
GEEMDTAEIARQVKEQLIKHNIGQRIFGHYVLGLSQGSVSEILARPKPWNKLAVRGKEPFHKMKQFLSDEQNILALRSIQGR [T53A]	-0.341 ± 0.049
GEEMDTAEIARQVKEQLIKHNIGQRIFGHYVLGLSQGSVSEILARPKPWNKLTQRGKEPFHKMKQFLSDEQNILALRSIQGR [V54Q]	0.064 ± 0.052
GEEMDTAEIARQVKEQLIKHNIGQRIFGHYVLGLSQGSVSEILARPKPWNKLTIRGKEPFHKMKQFLSDEQNILALRSIQGR [V54I]	-0.001 ± 0.039
GEEMDTAEIARQVKEQLIKHNIGQRIFGHYVLGLSQGSVSEILARPKPWNKLTSRGKEPFHKMKQFLSDEQNILALRSIQGR [V54S]	-0.033 ± 0.035
GEEMDTAEIARQVKEQLIKHNIGQRIFGHYVLGLSQGSVSEILARPKPWNKLTTRGKEPFHKMKQFLSDEQNILALRSIQGR [V54T]	0.03 ± 0.038
GEEMDTAEIARQVKEQLIKHNIGQRIFGHYVLGLSQGSVSEILARPKPWNKLTDRGKEPFHKMKQFLSDEQNILALRSIQGR [V54D]	0.052 ± 0.047
GEEMDTAEIARQVKEQLIKHNIGQRIFGHYVLGLSQGSVSEILARPKPWNKLTWRGKEPFHKMKQFLSDEQNILALRSIQGR [V54W]	-0.173 ± 0.061
GEEMDTAEIARQVKEQLIKHNIGQRIFGHYVLGLSQGSVSEILARPKPWNKLTPRGKEPFHKMKQFLSDEQNILALRSIQGR [V54P]	0.036 ± 0.046
GEEMDTAEIARQVKEQLIKHNIGQRIFGHYVLGLSQGSVSEILARPKPWNKLTLRGKEPFHKMKQFLSDEQNILALRSIQGR [V54L]	0.028 ± 0.036
GEEMDTAEIARQVKEQLIKHNIGQRIFGHYVLGLSQGSVSEILARPKPWNKLTERGKEPFHKMKQFLSDEQNILALRSIQGR [V54E]	0.136 ± 0.06
GEEMDTAEIARQVKEQLIKHNIGQRIFGHYVLGLSQGSVSEILARPKPWNKLTKRGKEPFHKMKQFLSDEQNILALRSIQGR [V54K]	0.058 ± 0.057
GEEMDTAEIARQVKEQLIKHNIGQRIFGHYVLGLSQGSVSEILARPKPWNKLTMRGKEPFHKMKQFLSDEQNILALRSIQGR [V54M]	0.119 ± 0.056
GEEMDTAEIARQVKEQLIKHNIGQRIFGHYVLGLSQGSVSEILARPKPWNKLTFRGKEPFHKMKQFLSDEQNILALRSIQGR [V54F]	-0.094 ± 0.051
GEEMDTAEIARQVKEQLIKHNIGQRIFGHYVLGLSQGSVSEILARPKPWNKLTGRGKEPFHKMKQFLSDEQNILALRSIQGR [V54G]	-0.04 ± 0.042
GEEMDTAEIARQVKEQLIKHNIGQRIFGHYVLGLSQGSVSEILARPKPWNKLTNRGKEPFHKMKQFLSDEQNILALRSIQGR [V54N]	0.08 ± 0.049
GEEMDTAEIARQVKEQLIKHNIGQRIFGHYVLGLSQGSVSEILARPKPWNKLTRRGKEPFHKMKQFLSDEQNILALRSIQGR [V54R]	-0.028 ± 0.041
GEEMDTAEIARQVKEQLIKHNIGQRIFGHYVLGLSQGSVSEILARPKPWNKLTARGKEPFHKMKQFLSDEQNILALRSIQGR [V54A]	0.066 ± 0.032
GEEMDTAEIARQVKEQLIKHNIGQRIFGHYVLGLSQGSVSEILARPKPWNKLTYRGKEPFHKMKQFLSDEQNILALRSIQGR [V54Y]	-0.033 ± 0.048
GEEMDTAEIARQVKEQLIKHNIGQRIFGHYVLGLSQGSVSEILARPKPWNKLTCRGKEPFHKMKQFLSDEQNILALRSIQGR [V54C]	-0.063 ± 0.051

Variant	abundance fitness
GEEMDTAEIARQVKEQLIKHNIGQRIFGHYVLGLSQGSVSEILARPKPWNKVTVRGKEPFHKMKQFLSDEQNILALRSIQGR [L52V]	-0.879 ± 0.07
GEEMDTAEIARQVKEQLIKHNIGQRIFGHYVLGLSQGSVSEILARPKPWNKTTVRGKEPFHKMKQFLSDEQNILALRSIQGR [L52T]	-0.99 ± 0.2
GEEMDTAEIARQVKEQLIKHNIGQRIFGHYVLGLSQGSVSEILARPKPWNKETVRGKEPFHKMKQFLSDEQNILALRSIQGR [L52E]	-1.02 ± 0.15
GEEMDTAEIARQVKEQLIKHNIGQRIFGHYVLGLSQGSVSEILARPKPWNKKTVRGKEPFHKMKQFLSDEQNILALRSIQGR [L52K]	-1.13 ± 0.24
GEEMDTAEIARQVKEQLIKHNIGQRIFGHYVLGLSQGSVSEILARPKPWNKQTVRGKEPFHKMKQFLSDEQNILALRSIQGR [L52Q]	-0.825 ± 0.11
GEEMDTAEIARQVKEQLIKHNIGQRIFGHYVLGLSQGSVSEILARPKPWNKNTVRGKEPFHKMKQFLSDEQNILALRSIQGR [L52N]	-1.1 ± 0.29
GEEMDTAEIARQVKEQLIKHNIGQRIFGHYVLGLSQGSVSEILARPKPWNKFTVRGKEPFHKMKQFLSDEQNILALRSIQGR [L52F]	-0.915 ± 0.14
GEEMDTAEIARQVKEQLIKHNIGQRIFGHYVLGLSQGSVSEILARPKPWNKYTVRGKEPFHKMKQFLSDEQNILALRSIQGR [L52Y]	-0.602 ± 0.078
GEEMDTAEIARQVKEQLIKHNIGQRIFGHYVLGLSQGSVSEILARPKPWNKRTVRGKEPFHKMKQFLSDEQNILALRSIQGR [L52R]	-1.1 ± 0.097
GEEMDTAEIARQVKEQLIKHNIGQRIFGHYVLGLSQGSVSEILARPKPWNKITVRGKEPFHKMKQFLSDEQNILALRSIQGR [L52I]	-0.538 ± 0.13
GEEMDTAEIARQVKEQLIKHNIGQRIFGHYVLGLSQGSVSEILARPKPWNKPTVRGKEPFHKMKQFLSDEQNILALRSIQGR [L52P]	-0.97 ± 0.14
GEEMDTAEIARQVKEQLIKHNIGQRIFGHYVLGLSQGSVSEILARPKPWNKDTVRGKEPFHKMKQFLSDEQNILALRSIQGR [L52D]	-1.17 ± 0.23
GEEMDTAEIARQVKEQLIKHNIGQRIFGHYVLGLSQGSVSEILARPKPWNKSTVRGKEPFHKMKQFLSDEQNILALRSIQGR [L52S]	-0.97 ± 0.082
GEEMDTAEIARQVKEQLIKHNIGQRIFGHYVLGLSQGSVSEILARPKPWNKATVRGKEPFHKMKQFLSDEQNILALRSIQGR [L52A]	-1.04 ± 0.12
GEEMDTAEIARQVKEQLIKHNIGQRIFGHYVLGLSQGSVSEILARPKPWNKCTVRGKEPFHKMKQFLSDEQNILALRSIQGR [L52C]	-0.484 ± 0.065
GEEMDTAEIARQVKEQLIKHNIGQRIFGHYVLGLSQGSVSEILARPKPWNKHTVRGKEPFHKMKQFLSDEQNILALRSIQGR [L52H]	-1.02 ± 0.16
GEEMDTAEIARQVKEQLIKHNIGQRIFGHYVLGLSQGSVSEILARPKPWNYLTVRGKEPFHKMKQFLSDEQNILALRSIQGR [K51Y]	-0.195 ± 0.073
GEEMDTAEIARQVKEQLIKHNIGQRIFGHYVLGLSQGSVSEILARPKPWNWLTVRGKEPFHKMKQFLSDEQNILALRSIQGR [K51W]	-0.338 ± 0.079
GEEMDTAEIARQVKEQLIKHNIGQRIFGHYVLGLSQGSVSEILARPKPWNVLTVRGKEPFHKMKQFLSDEQNILALRSIQGR [K51V]	0.053 ± 0.048
GEEMDTAEIARQVKEQLIKHNIGQRIFGHYVLGLSQGSVSEILARPKPWNSLTVRGKEPFHKMKQFLSDEQNILALRSIQGR [K51S]	0.006 ± 0.053
GEEMDTAEIARQVKEQLIKHNIGQRIFGHYVLGLSQGSVSEILARPKPWNTLTVRGKEPFHKMKQFLSDEQNILALRSIQGR [K51T]	0.011 ± 0.07

Reference: the Human Domainome abundance scans (Beltran et al. 2025)
